The results in this text go back to patent US20210324374, “COMPOSITIONS AND METHODS FOR SCREENING APTAMERS” (Chan Zuckerberg Biohub, Inc., published 2021).

The target in the data set is VEGF (vascular endothelial growth factor) (UniProt P15692-4 P15692-4:27-191). As to the kind of experiment: N2A2 flow-cell fluorescence, natural DNA. Particulars: tags: Dylight 650 NHS labelled; R&D Systems; chain copies: 2. The source says:
We used N2A2 to measure the VEGF binding affinity of all sequences in these pools simultaneously. We performed three separate experiments: 1) VEGF binding to the natural DNA pools, 2) VEGF binding to non-natural DNA modified with tryptophan, and 3) VEGF binding to non-natural DNA modified with tyrosine. In addition to the six aptamer pools described above (R0-R5), we included three other DNA sequences on the flow cell for each experiment: (1) a known “fiducial mark” sequence with a fluorescently-labeled complement for intensity calibration, (2) a “positive control” sequence based on a published aptamer known to bind to VEGF, and (3) a “negative control” sequence known not to bind to VEGF. The same input DNA stocks and labeled VEGF protein were used for all three experiments, but new sequencing cartridges and flow cells were used for each separate experiment. Other details of experimental setup of the sequencing cartridge, protein titrations, and software and hardware modifications have previously been described in the provided grant document and manuscript. VEGF protein was labeled with Dylight647 fluorophore to enable imaging on the N2A2.

Chain of VEGF (vascular endothelial growth factor) (P15692 other isoform, or with tags, fused parts or gaps): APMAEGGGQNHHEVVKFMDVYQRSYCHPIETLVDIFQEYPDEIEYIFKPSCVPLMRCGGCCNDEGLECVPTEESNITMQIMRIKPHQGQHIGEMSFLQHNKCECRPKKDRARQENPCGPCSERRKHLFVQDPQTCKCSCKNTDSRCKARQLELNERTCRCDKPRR

B1: K SL2-B positive control (ssDNA)
DNA: AGCAGCACAGAGGTCAGATGAATTGGGCCCGTCCGTATGGTGGGTCCTATGCGTGCTACCGTGAA
On to B1, for which the binding result is listed as “binds”.
